The target of test [1] is human FCMR on blood cells (human) (UniProt O60667). Description: flow cytometry of fresh human whole blood, isotype control row of the left (2A5) panel; gated subset not stated; FMO row reads 24.7.
The target is the same in test [2]. Briefly: flow cytometry of fresh human whole blood, isotype control row of the right (3F9) panel; gated subset not stated; FMO row reads 24.7.
Test [3] has the same target. Briefly: flow cytometry of fresh human whole blood, gated CD19+ B cells, aToso 2A5 : AF647, left panel.
Test [4] addresses recombinant human FCMR-Fc (human) (UniProt O60667). Description: SPR (Biacore), 25 C, antibody immobilised, FCMR-Fc titrated at 500 to 0 nM.
Test [5] has as its target human FCMR on blood cells (human) (UniProt O60667). Description: flow cytometry of fresh human whole blood, gated CD3+CD8+ T cells, aToso 2A5 : AF647, left panel.
Test [6] shares this target. Briefly: flow cytometry of fresh human whole blood, gated CD3+CD4+ T cells, aToso 2A5 : AF647, left panel.

Chain of UniProt O60667 (O60667 17-390): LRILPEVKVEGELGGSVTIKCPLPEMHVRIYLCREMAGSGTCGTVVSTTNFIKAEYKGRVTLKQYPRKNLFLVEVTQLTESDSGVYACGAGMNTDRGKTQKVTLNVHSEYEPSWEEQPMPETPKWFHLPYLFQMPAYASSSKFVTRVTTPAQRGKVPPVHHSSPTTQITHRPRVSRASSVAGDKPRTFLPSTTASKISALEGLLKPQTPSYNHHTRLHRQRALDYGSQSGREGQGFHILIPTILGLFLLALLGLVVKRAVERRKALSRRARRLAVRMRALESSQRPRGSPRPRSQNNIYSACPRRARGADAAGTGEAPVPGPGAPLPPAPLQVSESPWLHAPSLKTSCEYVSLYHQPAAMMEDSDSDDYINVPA

Take Isotype Control (antibody): the mean fluorescence intensity in test [1] and in test [2] was 25.6 in each case.

B1: FCMR 2A5 antibody (antibody, V domains shown)
VH: EVQLVESGGDLVKPGGSLKLSCAASGFTFSSYGMSWVRQTPDKRLEWVATINSGGSSIYYPDSVKGRFTISRDNAKNTLYLQMSSLKSEDTAMYYCARHNYDSSYRYAMDYWGQGTSVTVSS
VL: DIKMTQSPSSMYASLGERVTITCKASQDINNFLSWFQQKPGKSPKTLIYRANGLVDGVPSRFSGSGSGQDYSLTISSLEYEDMGIYYCLQYDEFPPTFGGGTKLEFKR
For B1, the mean fluorescence intensity in test [3] was 960. Also, in test [4], the dissociation constant Kd worked out at 7.21 nM, the koff was determined as 0.000247 s⁻¹ and the kon is 34700 M⁻¹ s⁻¹. The molecule further had a mean fluorescence intensity in test [5] of 414. The mean fluorescence intensity in test [6] was 247.

Values taken from patent US20220089725A1.
